Assay results published in the Human Domainome abundance scans (Beltran et al. 2025).
± gives the uncertainty stated by the source.

B1: Zinc finger MYM-type protein 3, residues 589 to 668; numbered along this chain, Q14202 (parent)
chain: LSCHYCHSLFSGKPEVLDWQDQVFQFCCRDCCEDFKRLRGVVSQCEHCRQEKLLHEKLRFSGVEKSFCSEGCVLLYKQDF

Variants of: B1
Test: abundance fitness (aPCA) (normalised: wild type 0, dead -1); higher = more abundant; growth selection in yeast, the domain comes from the species named
Settings: Homo sapiens

Point of comparison: LSCQYCHSLFSGKPEVLDWQDQVFQFCCRDCCEDFKRLRGVVSQCEHCRQEKLLHEKLRFSGVEKSFCSEGCVLLYKQDF [H4Q], abundance fitness 0.088 ± 0.046. Against it:
- LSLHYCHSLFSGKPEVLDWQDQVFQFCCRDCCEDFKRLRGVVSQCEHCRQEKLLHEKLRFSGVEKSFCSEGCVLLYKQDF [C3L] — lower, -0.896 ± 0.065
- LSAHYCHSLFSGKPEVLDWQDQVFQFCCRDCCEDFKRLRGVVSQCEHCRQEKLLHEKLRFSGVEKSFCSEGCVLLYKQDF [C3A] — lower, -0.906 ± 0.078
- LSNHYCHSLFSGKPEVLDWQDQVFQFCCRDCCEDFKRLRGVVSQCEHCRQEKLLHEKLRFSGVEKSFCSEGCVLLYKQDF [C3N] — lower, -1.11 ± 0.23
- LSYHYCHSLFSGKPEVLDWQDQVFQFCCRDCCEDFKRLRGVVSQCEHCRQEKLLHEKLRFSGVEKSFCSEGCVLLYKQDF [C3Y] — lower, -0.984 ± 0.18
- LSVHYCHSLFSGKPEVLDWQDQVFQFCCRDCCEDFKRLRGVVSQCEHCRQEKLLHEKLRFSGVEKSFCSEGCVLLYKQDF [C3V] — lower, -0.871 ± 0.074
- LSSHYCHSLFSGKPEVLDWQDQVFQFCCRDCCEDFKRLRGVVSQCEHCRQEKLLHEKLRFSGVEKSFCSEGCVLLYKQDF [C3S] — lower, -1.06 ± 0.098
- LSQHYCHSLFSGKPEVLDWQDQVFQFCCRDCCEDFKRLRGVVSQCEHCRQEKLLHEKLRFSGVEKSFCSEGCVLLYKQDF [C3Q] — lower, -0.998 ± 0.1
- LSFHYCHSLFSGKPEVLDWQDQVFQFCCRDCCEDFKRLRGVVSQCEHCRQEKLLHEKLRFSGVEKSFCSEGCVLLYKQDF [C3F] — lower, -0.63 ± 0.11
- LSPHYCHSLFSGKPEVLDWQDQVFQFCCRDCCEDFKRLRGVVSQCEHCRQEKLLHEKLRFSGVEKSFCSEGCVLLYKQDF [C3P] — lower, -1.06 ± 0.12
- LSRHYCHSLFSGKPEVLDWQDQVFQFCCRDCCEDFKRLRGVVSQCEHCRQEKLLHEKLRFSGVEKSFCSEGCVLLYKQDF [C3R] — lower, -0.949 ± 0.063
- LSDHYCHSLFSGKPEVLDWQDQVFQFCCRDCCEDFKRLRGVVSQCEHCRQEKLLHEKLRFSGVEKSFCSEGCVLLYKQDF [C3D] — lower, -1.04 ± 0.13
- LSTHYCHSLFSGKPEVLDWQDQVFQFCCRDCCEDFKRLRGVVSQCEHCRQEKLLHEKLRFSGVEKSFCSEGCVLLYKQDF [C3T] — lower, -0.936 ± 0.085
- LSHHYCHSLFSGKPEVLDWQDQVFQFCCRDCCEDFKRLRGVVSQCEHCRQEKLLHEKLRFSGVEKSFCSEGCVLLYKQDF [C3H] — lower, -1.17 ± 0.42
- LSKHYCHSLFSGKPEVLDWQDQVFQFCCRDCCEDFKRLRGVVSQCEHCRQEKLLHEKLRFSGVEKSFCSEGCVLLYKQDF [C3K] — lower, -0.837 ± 0.097
- LSEHYCHSLFSGKPEVLDWQDQVFQFCCRDCCEDFKRLRGVVSQCEHCRQEKLLHEKLRFSGVEKSFCSEGCVLLYKQDF [C3E] — lower, -0.823 ± 0.078
- LSGHYCHSLFSGKPEVLDWQDQVFQFCCRDCCEDFKRLRGVVSQCEHCRQEKLLHEKLRFSGVEKSFCSEGCVLLYKQDF [C3G] — lower, -1.01 ± 0.088
- LSMHYCHSLFSGKPEVLDWQDQVFQFCCRDCCEDFKRLRGVVSQCEHCRQEKLLHEKLRFSGVEKSFCSEGCVLLYKQDF [C3M] — lower, -0.505 ± 0.077
- LSIHYCHSLFSGKPEVLDWQDQVFQFCCRDCCEDFKRLRGVVSQCEHCRQEKLLHEKLRFSGVEKSFCSEGCVLLYKQDF [C3I] — lower, -1.02 ± 0.26
- LSCDYCHSLFSGKPEVLDWQDQVFQFCCRDCCEDFKRLRGVVSQCEHCRQEKLLHEKLRFSGVEKSFCSEGCVLLYKQDF [H4D] — within error, 0.128 ± 0.052
- LSCKYCHSLFSGKPEVLDWQDQVFQFCCRDCCEDFKRLRGVVSQCEHCRQEKLLHEKLRFSGVEKSFCSEGCVLLYKQDF [H4K] — within error, 0.179 ± 0.051
- LSCFYCHSLFSGKPEVLDWQDQVFQFCCRDCCEDFKRLRGVVSQCEHCRQEKLLHEKLRFSGVEKSFCSEGCVLLYKQDF [H4F] — within error, 0.128 ± 0.072
- LSCRYCHSLFSGKPEVLDWQDQVFQFCCRDCCEDFKRLRGVVSQCEHCRQEKLLHEKLRFSGVEKSFCSEGCVLLYKQDF [H4R] — within error, 0.115 ± 0.038
- LSCLYCHSLFSGKPEVLDWQDQVFQFCCRDCCEDFKRLRGVVSQCEHCRQEKLLHEKLRFSGVEKSFCSEGCVLLYKQDF [H4L] — lower, -0.05 ± 0.04
- LSCIYCHSLFSGKPEVLDWQDQVFQFCCRDCCEDFKRLRGVVSQCEHCRQEKLLHEKLRFSGVEKSFCSEGCVLLYKQDF [H4I] — lower, -0.064 ± 0.073
- LSCVYCHSLFSGKPEVLDWQDQVFQFCCRDCCEDFKRLRGVVSQCEHCRQEKLLHEKLRFSGVEKSFCSEGCVLLYKQDF [H4V] — within error, 0.054 ± 0.04
- LSCSYCHSLFSGKPEVLDWQDQVFQFCCRDCCEDFKRLRGVVSQCEHCRQEKLLHEKLRFSGVEKSFCSEGCVLLYKQDF [H4S] — higher, 0.248 ± 0.043
- LSCGYCHSLFSGKPEVLDWQDQVFQFCCRDCCEDFKRLRGVVSQCEHCRQEKLLHEKLRFSGVEKSFCSEGCVLLYKQDF [H4G] — higher, 0.29 ± 0.038
- LSCCYCHSLFSGKPEVLDWQDQVFQFCCRDCCEDFKRLRGVVSQCEHCRQEKLLHEKLRFSGVEKSFCSEGCVLLYKQDF [H4C] — higher, 0.26 ± 0.051
- LSCMYCHSLFSGKPEVLDWQDQVFQFCCRDCCEDFKRLRGVVSQCEHCRQEKLLHEKLRFSGVEKSFCSEGCVLLYKQDF [H4M] — higher, 0.227 ± 0.044
- LSCPYCHSLFSGKPEVLDWQDQVFQFCCRDCCEDFKRLRGVVSQCEHCRQEKLLHEKLRFSGVEKSFCSEGCVLLYKQDF [H4P] — lower, -0.061 ± 0.048
- LSCAYCHSLFSGKPEVLDWQDQVFQFCCRDCCEDFKRLRGVVSQCEHCRQEKLLHEKLRFSGVEKSFCSEGCVLLYKQDF [H4A] — higher, 0.28 ± 0.039
- LSCEYCHSLFSGKPEVLDWQDQVFQFCCRDCCEDFKRLRGVVSQCEHCRQEKLLHEKLRFSGVEKSFCSEGCVLLYKQDF [H4E] — within error, 0.174 ± 0.047
- LSCTYCHSLFSGKPEVLDWQDQVFQFCCRDCCEDFKRLRGVVSQCEHCRQEKLLHEKLRFSGVEKSFCSEGCVLLYKQDF [H4T] — higher, 0.19 ± 0.043
